Legend:
PpbHLH1 [1] = biological target: T1, PpbHLH1 (Prunus persica, UniProt M5W438 1-344); assay: competition
PpbHLH1 [2] = biological target: T1, PpbHLH1; assay: EMSA

Row | Binder | binding result (PpbHLH1 [1]) | binding result (PpbHLH1 [2])
1 | Probe1 unlabelled (cold competitor) (dsDNA) DNA 1: TGAAATGATGATAAGCACATGGATATATGGCCTGGAAAAC DNA 2: GTTTTCCAGGCCATATATCCATGTGCTTATCATCATTTCA | binds | –
2 | Mutant-Probe1 (dsDNA) DNA 1: TGAAATGATGATAAGAGTGGAGATATATGGCCTGGAAAAC DNA 2: GTTTTCCAGGCCATATATCTCCACTCTTATCATCATTTCA | – | no binding
